We go through one molecule from article PMC10598214, “SaLT&PepPr is an interface-predicting language model for designing peptide-guided protein degraders” (Communications Biology, 2023).

The assay has as its target T1, β-catenin (UniProt P35222 1-781).
T1 sequence (looked up): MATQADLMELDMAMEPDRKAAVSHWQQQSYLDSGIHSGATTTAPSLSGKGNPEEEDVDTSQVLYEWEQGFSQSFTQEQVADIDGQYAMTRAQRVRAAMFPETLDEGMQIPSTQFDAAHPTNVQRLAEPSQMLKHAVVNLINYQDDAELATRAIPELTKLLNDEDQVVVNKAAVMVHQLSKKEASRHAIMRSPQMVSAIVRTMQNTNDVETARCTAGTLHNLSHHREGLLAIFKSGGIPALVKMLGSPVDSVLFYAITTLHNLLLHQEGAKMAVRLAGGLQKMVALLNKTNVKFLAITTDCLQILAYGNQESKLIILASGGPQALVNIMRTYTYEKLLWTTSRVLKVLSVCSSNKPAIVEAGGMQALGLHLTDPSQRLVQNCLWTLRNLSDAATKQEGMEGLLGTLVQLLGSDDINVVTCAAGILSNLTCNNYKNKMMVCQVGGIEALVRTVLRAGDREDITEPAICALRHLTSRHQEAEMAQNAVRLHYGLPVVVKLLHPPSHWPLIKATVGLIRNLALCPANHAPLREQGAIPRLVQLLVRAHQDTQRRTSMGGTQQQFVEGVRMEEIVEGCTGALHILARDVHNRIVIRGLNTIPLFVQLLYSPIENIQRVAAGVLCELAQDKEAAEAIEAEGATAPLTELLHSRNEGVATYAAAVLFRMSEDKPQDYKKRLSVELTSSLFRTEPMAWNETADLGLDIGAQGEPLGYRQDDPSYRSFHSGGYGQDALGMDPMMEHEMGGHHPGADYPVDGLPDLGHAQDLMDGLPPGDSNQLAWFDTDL
The assay can be described thus: cell-based or functional assay.

B1: SnP_8 uAb (designed binder)
chain: PTAPPYDSLLVFDYEGGSGSGRLNFGDDIPSALRIAKKKRWNSIEERRIHQESELHSYLSRLIAAERERELEECQRNHEGDEDDSHVRAQQACIEAKHDKYMADMDELFSQVDEKRKKRDIPDYLCGKISFELMREPCITPSGITYDRKDIEEHLQRVGHFDPVTRSPLTQEQLIPNLAMKEVIDAFISENGWVEDY
modifications: biotinylated with EZ-Link NHS-Biotin
As for B1, the “degradation of endogenous cytosolic β-catenin in transfected DLD1 cells (immunoblot densitometry, relative to non-transfected control)” value was above 60%.
